The values that follow come from PMC7074877 (ACS chemical neuroscience, 2018).

The data set can be described thus: Transmission electron microscopy of assemblies. To be noted: 7 μL aliquots on carbon-coated copper grids, stained with 1% uranyl acetate. The class given is physicochemical.

As for “HEWL: fibrils from hen egg white lysozyme, positive control for ThT and TEM”, the “average diameter of assemblies by TEM” value is listed as 38 nm.
